Laboratory results: publication PMC10769282

These substances were tested against SARS-CoV-2 Spike, BA.1 variant of concern, 21-amino-acid truncated form (SARS-CoV-2 (BA.1)) (UniProt P0DTC2).

**Q.** SA58 VH T53L A61S (antibody) was tested. Which IC50, neutralisation of BA.1 Spike pseudovirus did it give?
**A.** 12 µg/mL

**Q.** SA58 VH T53L A61S, VL N95V (antibody) was tested. Which IC50, neutralisation of BA.1 Spike pseudovirus did it give?
**A.** 11 µg/mL

**Q.** Which IC50, neutralisation of BA.1 Spike pseudovirus does the source give for SA58 VL S54T (antibody) here?
**A.** 12 µg/mL
